Key:
[1] = target: T1, hCMV gH + gL + UL128 + UL130 + UL131A (5-member complex; HEK293T co-transfectant) (hCMV, UniProt P12824 24-743; P16832 31-278; P16837 1-171; P16772 1-214); experiment: cell-based or functional assay
[2] = target: hCMV UL130 Q191K (virus selected with 4I22) (hCMV); experiment: cell-based or functional assay
[3] = target: hCMV UL130 W179R (virus selected with 4I22) (hCMV); experiment: cell-based or functional assay
[4] = target: T2, hCMV UL130 + UL131A (HEK293T co-transfectant) (hCMV, UniProt P16772 1-214); experiment: cell-based or functional assay
[5] = target: T2, hCMV UL130 + UL131A (HEK293T …); experiment: cell-based or functional assay; remark: listed apart in the source
[6] = target: T1, hCMV gH + gL + UL128 + UL130 + UL131A …; experiment: cell-based or functional assay; remark: listed apart in the source
[7] = target: T1, hCMV gH + gL + UL128 + UL130 + UL131A …; experiment: cell-based or functional assay; remark: listed apart in the source
[8] = target: soluble 5-member complex (gH, gL, UL128, UL130, UL131A) (hCMV, UniProt P12824 24-716; P16832 31-278; P16837 28-171; P16772 26-214); experiment: Biacore SPR, soluble 5-member complex
[9] = target: T1, hCMV gH + gL + UL128 + UL130 + UL131A …; experiment: cell competition; competitor 2F4-biotin
[10] = target: T1, hCMV gH + gL + UL128 + UL130 + UL131A …; experiment: cell competition; competitor 5A2-biotin
[11] = target: T1, hCMV gH + gL + UL128 + UL130 + UL131A …; experiment: cell competition; competitor 10F7-biotin
[12] = target: T1, hCMV gH + gL + UL128 + UL130 + UL131A …; experiment: cell competition; competitor 1F11-biotin
[13] = target: T1, hCMV gH + gL + UL128 + UL130 + UL131A …; experiment: cell competition; competitor 4I22-biotin
[14] = target: T1, hCMV gH + gL + UL128 + UL130 + UL131A …; experiment: cell competition; competitor 4N10-biotin
[15] = target: T1, hCMV gH + gL + UL128 + UL130 + UL131A …; experiment: cell competition; competitor 2C12-biotin
[16] = target: T1, hCMV gH + gL + UL128 + UL130 + UL131A …; experiment: cell competition; competitor 8I21-biotin
[17] = target: T1, hCMV gH + gL + UL128 + UL130 + UL131A …; experiment: cell competition; competitor 8J16-biotin

B1: 4I22 (antibody, human IgG1, V domains shown)
VH: QVQLVESGGGVVQPGRSLRLSCVASGFTFSSYAMHWVRQAPGKGLEWVAVISYDGDNKFYADSVKGRFRISRDTSKNTLYLEMNSLRAADTAIYYCAREELVGLMPPYYNYGLDVWGQGTTVTVSS
VL: QSVLTQPPSVSAAPGQKVTISCSGSNSNIGNNYVSWYQQLPGRAPKLLIYDNDHRPSGIPDRFSGSKSGTSATLVITGLQTGDEADYYCETWDTSLSAAVVFGGGTKLTVL
notes: fully human IgG1 with unaltered Fc; also called 4I22-biotin; 4122
EC50 inhibition of cell-cell fusion [1]: 0.076 µg/mL
fold decrease in susceptibility of escape virus [2]: > 50000 fold
fold decrease in susceptibility of escape virus [3]: > 50000 fold
50% neutralization VR1814, ARPE [4]: < 0.01 µg/mL
50% neutralization VR1814, MRC-9 [4]: > 2 µg/mL
90% neutralization VR1814, ARPE [5]: 0.0015 µg/mL
90% neutralization VR1814, MRC-9 [5]: > 10 µg/mL
neutralization of ARPE infection, isolate TM-20749 [6]: 0.01 µg/mL
neutralization of ARPE infection, isolate TM-31354 [6]: 0.028 µg/mL
neutralization of ARPE infection, isolate TM-E5271 [6]: 0.01 µg/mL
neutralization of ARPE infection, isolate TM-E9361 [6]: 0.002 µg/mL
neutralization of ARPE infection, isolate TM-E14953 [6]: 0.012 µg/mL
neutralization of ARPE infection, isolate TM-E19664 [6]: 0.016 µg/mL
neutralization of ARPE infection, isolate TM-E20744 [6]: 0.01 µg/mL
neutralization of ARPE infection, isolate TM-E28175 [6]: 0.006 µg/mL
neutralization of ARPE infection, isolate TM-E28257 [6]: 0.009 µg/mL
EC90 neutralization HUVEC, isolate TM-20749 [7]: 0.011 µg/mL
EC90 neutralization HUVEC, isolate TM-31354 [7]: 0.012 µg/mL
EC90 neutralization HUVEC, isolate TM-E5271 [7]: 0.001 µg/mL
EC90 neutralization HUVEC, isolate TM-E9361 [7]: 0.016 µg/mL
EC90 neutralization HUVEC, isolate TM-E14953 [7]: 0.012 µg/mL
EC90 neutralization HUVEC, isolate TM-E19664 [7]: 0.013 µg/mL
EC90 neutralization HUVEC, isolate TM-E20744 [7]: 0.02 µg/mL
EC90 neutralization HUVEC, isolate TM-E28175 [7]: 0.009 µg/mL
EC90 neutralization HUVEC, isolate TM-E28257 [7]: 0.001 µg/mL
Kd [8]: 0.31 nM
Inhibition of binding (%) [9]: 100%
Inhibition of binding (%) [10]: 0%
Inhibition of binding (%) [11]: 100%
Inhibition of binding (%) [12]: 100%
Inhibition of binding (%) [13]: 100%
Inhibition of binding (%) [14]: 0%
Inhibition of binding (%) [15]: 0%
Inhibition of binding (%) [16]: 0%
Inhibition of binding (%) [17]: 0%
